Measured values as given in paper PMC8967717 (Nature, 2022).

Experiments:
[1] = target: SARS-CoV-2 wild-type spike (S) protein (SARS-CoV-2, WT (MN908947), UniProt P0DTC2)
[2] = target: SARS-CoV-2 wild-type spike receptor-binding domain (SARS-CoV-2, WT (MN908947), UniProt P0DTC2)

| Binder | binding result [1] | binding result [2] |
| --- | --- | --- |
| XGV026 (antibody, V domains shown) VH: EVQLVESGGGVIQPGGSLRLSCAASEIIVSSNYMNWVRQAPGKGLEWVSVIYPGGSSFYADSVKGRFTISRDNSKNTLYLQMNSLRVEDTAVYYCARDSPHRPGTIWGQGTLVVVSS VL: DIQMTQSPSSLSASVGDRVTITCRASQDINNYLNWYQQKPGKAPKLLIYDAFTLEAGVPSRFSGARFGTDFTFTISSLQPEDIATYYCHQCDNLPCTFGGGTKVEIK | binds | binds |
| XGv261 (antibody, V domains shown) VH: QLQLQESGPGLVRPSETLSLTCTVSGGSITDSGYYWGWIRQPPGKGLEWIGNIFYSGSTYYNPSLKSRVTISVDTSKNQFSLRLSSVTAADTAVYYCAREIGIIDYWGQGSLVIVSS VL: DIQMTQSPSSLSASVGDRVTITCRASQGISNSLAWYQQKPGKAPKLLLYGASTLESGVPSRFSGSGSGTHFTLTISSLQPEDFATYFCQQYYSSPPRTFGGGTKVEI | binds | binds |
| XGV042 (antibody, V domains shown) VH: QITLKESGPTLVKPTQTLTLTCTFSGLSMTTSGVGVGWIRQPPGKALEWLALIYWDDDKRYSPFLKSRLTITKDTSKNQVVLTMTNMDPADTGTYFCAHHTIPSIFDHWGQGTLVTVSS VL: QSALTQPASVSGSPGQSITISCTATSSDVGVYNYVSWYQQYPGKAPRLIIFEVSNRPSGVSSRFSGSKSGYTASLTISGLQTDDEADYYCSSYTTTSTVFGGGTKLTVL | binds | binds |
| XGv266 (antibody, V domains shown) VH: QITLKESGPTLVRPTQTLTLTCTFSGLSLSAPAEGVGWIRQPPGKALEWLALIYWEGDQRYSPSLKSRLTITKDTSKKQVVLTMTNMDPVDTATYYCARHSVATIFDFWGQGTLVTVSS VL: QSALTQPASVSGSPGQSITISCTGTSSDVGCCNYVSWYQHHPGKAPKLMIYEVTNRPSGISDRFSGSKSGNTASLTISGLQAEDEAAYYCSSYTTSTARVVFGGGTKLTVL | binds | binds |
| XGv074 (antibody, V domains shown) VH: EVQLVESGGGLIQPGGSLRLSCAASGITVSANYMSWVRQAPGKGLEWVSVIYSGGSTYYADSVKGRFTISRDHSKNTLYLQMKNLRAEDTAVYYCARDRGSSGYLGDQPYEYWGQGTLVTVSS VL: DIQMTQSPSSLSASVGDRVTITCQASQDINKYLNWYQQKPGKAPKLLIYGASNLETGVPSRFSGSGSGTDFTFTISSLRPEDIATYYCQQYDPLPVTFGGGTRVEIK | binds | binds |
| XGV050 (antibody, V domains shown) VH: EVQLVESGGGLVQPGGSLRLSCAASGFTFSRYDMHWVRQAAGKGLEWVSGIGAPGDTYYAGSVKGRFTISRENAKTSLHLQMNNLRAGDTAVYYCTRGWFGENYMDVWGKGTTVTVSS VL: EIVLTQSPATLSLSPGERATLSCRASQSVSNHLAWFQQKPGQSPRLLIYDASNRATGIPARFSGSGSGTDFTLTISSLEPEDFAIYYCHQRSNWPTFGQGTKVEIK | binds | binds |
| XGv287 (antibody, V domains shown) VH: QVQLVQSGAEVKKPGASVKVSCKTSGYTFTTYYMHWVRQAPGQGLEWMGIINPSDGSTNYAQKFQDRVTLTKDTSTSTFYMELSSLTSEDTAKYYCARAEGSSWLGWFDPWGQGTLVTVSS VL: QSVLTQPPSASGTPGQRVTISCSGSNSNIGNHFVYWYQQLPGKAPKLLIYRNNQRPSGVPDRFSGSKSGTSASLAISGLRSEDEADYYCASWNDGLSASGWVFGGGTKLTV | binds | binds |
| XGv291 (antibody, V domains shown) VH: QVQLVQSGAEVKKPGASVEISCKASGYSFTKYYVHWVRQAPGQGLEWMGIVNPNGGASYAQKFQGRVTMTSDTSTTTFYMEVSGLRSDDTAVYYCARAEGSSWLGWFDPWGQGTLVTVSS VL: QSVLTQPPSASGTPGQRVTISCSGSTSNIGSKDVYWYQQLPGTAPKLLIYRNNQRPSGAPDRFSASKSGTSASLAISGLRSEDEADYYCAVWDDGLSASGWLFGGGTKLTV | binds | binds |
| XGV016 (antibody, V domains shown) VH: QVQLVQSGTEVRKPGASVTVSCKASGYTFTTYHMHWVRRAPGQGLEWMGIIDPGTGGASYPQKFRGRVTLTRDTSTNTVYMELSSLRFQDTAIYYCARAEGSSWLGWFDPWGQGTLVTVSS VL: QSVLTQPPSASGTPGQRVSISCSGSSSNIGTNYVYWYQQLPGTAPKLLIYKNNQRPSGVPDRFSGSKSGTSASLAISGLRSEDEADYFCASWDNGLSGSGWVFGGGTKLTV | binds | binds |
| XGv288 (antibody, V domains shown) VH: QVQLVQSGAEVKKPGASVKVSCKASGYTFTNYYIHWVRQAPGQGLEWMAIINPSGGGASYAHKFQGRVTMTRDTSTSTLYMELISLRSDDTAVYYCARAEGSSWLGWFDPWGQGTLITVSS VL: QSVLTQPPSASGTPGQRVTISCSGSSSNIGSNYVYWYQQLPGTAPKLLIYRNAQRPSGVPDRFSGSKSGTSASLAISGLRSEDEADYYCAAWDDGLSGSGWVFGGGTKLTV | binds | binds |
| XGV031 (antibody, V domains shown) VH: QVQLVQSGAEVKKPGSSVKVSCKASGGTFSNYALSWVRQAPGQGLEWMGGIIPIFGTTNYAQNFQGRVTITADESTSTAYMELSSLRSEDTAVYYCARLDGYSFGHNRYYQDGMDDWGQGTTVTVSS VL: DIQMTQSPSSLSASVGDRVTITCRASQAIRSDLGWYQQKPGKAPKCLIYAASTLQSGVPSRFSGSGSGTEFTLTISSLQPEDFATYYCLQQNIYPRTFGQGTKVEI | binds | binds |
| XGv051 (antibody, V domains shown) VH: QVQLVQSGAEVKKPGSSVKVSCKASGGTFSNYALSWVRQAPGQGLEWMGGIIPIFGTTNYAQKFQGRVTITADESTSTAYMELSSLRSEDTAVYYCARLDGYSFGHDRYYQDGMDDWGPGTTVTVSS VL: DIQMTQSPSSLSASVGDRVTITCRASQAIRNDLGWYQQKPGKAPKCLIYAASTLQSGVPSRFSGSGSGTEFTLTISSLQPEDFATYFCLQQNIYPRTFGQGTKVEI | binds | binds |
| XGv053 (antibody, V domains shown) VH: QVQLVQSGAEVKKPGSSVKVSCKASGGTFSSYALTWVRQAPGQGLEWMGGIIPIFGTTNYAQKFQGRVTITADESTSTAYMELTSLRSEDTAVYYCARLDGYSFGHNRYYQDGMDDWGQGTTVTVSS VL: DIQMTQSPSSLSASVGDRVTITCRASQDIRNDLGWYQQKPGKAPKCLIYAASTLQSGVPSRFSGSGSGTEFTLTISSLQPEDFATYYCLQQNIYPRTFGQGTKVEIK | binds | binds |
| XGv055 (antibody, V domains shown) VH: QVQLVQSGAEVKKPGSSVKVSCKASGGTFSSYALSWVRQAPGQGLEWMGGIIPIFGTTNYAQKFQGRVTITADESSSTAYMELSSLRSEDTAVYYCARLDGYSFGHNRYYQDGMDDWGQGTTVTVSS VL: DIQMTQSPSSLSASVGDRVTITCRASQGIRNDLGWYQQKPGKAPKCLIYAASTLQSGVPSRFSGSGSGTEFTLTISSLQPEDFATYYCLQQNIYPRTFGQGTKVEIK | binds | binds |
| XGv264 (antibody, V domains shown) VH: QITLKESGPTLVKPTQTLTLTCAFSGFSLNTGGAGVGWIRQPPGKALEWLALIYWDGDKRYNPSLKSRLAIIMDTSKNRVVLTMTNMDPVDTATYYCAHHKIEYIFDYWGQGTLVAVSS VL: QSALTQPASVSGSPGQSITVSCTGTSSDLGNFQYVSWYQHHPGKAPKLLIYEVSHRPSGVSNRFSGSKSGNTASLTISGLQAEDEADYYCCSYTTTTIPVAFGGGTRLTVL | binds | binds |
| XGv177 (antibody, V domains shown) VH: EVQLVESGGGLIQPGGSLRLSCAASGVTVSSNYMTWVRQAPGKGLDWVSVIYSGGSTFYADSVKGRFTISRDNSKNTLYLQMNSLRVEDTAVYYCARDLVDYGLDVWGQGTTVTVSS VL: DIQLTQSPSFLSASVGDRVTITCRASQGIASYLAWYQQKPGKPPKLLIYAASTLQSGVPTRFSGSGSGTEFTLTITSLQPEDFATYYCQLLSRHPPTFGGGTKVEI | binds | binds |
| XGV017 (antibody, V domains shown) VH: EVQLVESGGGLIQPGGSLRLSCAASGVTVSSNYMNWVRQAPGKGLEWVSVIYPGGTRDYSDSVKGRFTISRDSSKNTLYLQMNSLRDEDTAFYYCARDLVVYGMDVWGQGTTVTVTS VL: DIQLTQSPSSLSASVGDRVTITCRASQGISSYLAWYQQKPGKAPKLLIYAASTLQSGVPSRFSGSGSGTDFTLTISSLQPEDFAAYYCQLLNTYPLTFGGGTKVEIK | binds | binds |
| XGv285 (antibody, V domains shown) VH: QVQLVQSGAEVKKPGASMKVSCKASGYTFISYYMHWVRQAPGQELEWMGIINPSGGSTSYAQKFQGRVTMTRDTSTSTVYMELRSLRSEDTAVYYCARAEGSSWLGWFDPWGQGTLVTVSS VL: QSVLTQPPSASGTPGQRVTISCSGSSSNIGSNLVYWYQHLPGTAPKLLIYKNTQRPSGVPDRFSGSKSGTSASLAISGLRSDDEGDYYCAAWDDGLSGSGWVFGGGTKVT | binds | binds |
| XGv286 (antibody, V domains shown) VH: QVQLVQSGAEVKKPGASVKVSCKASGYTFSSYYIHWVRQAPGQGPEWMAIINPGDGGASYAQKFQGRVTLTRDTSTSTLYMELSSLRSEDTAVYYCARAEGSSWLGWFDPWGQGTLVTVSS VL: QSVLTQPPSASGTPGQRVTISCSGSSSNIGSNYVYWYQQLPGTAPKLLIYRNNQRPSGVPDRFSGSRSGTSASLAISGLRSEDEADYYCAAWDDGLSGSGWVFGGGTKLT | binds | binds |
| XGv290 (antibody, V domains shown) VH: QVQLVQSGAEVKKPGASVKVSCKASGYTFKNYHMHWVRQAPGQGLEWMGIINPSGGGSSYAQKFQGRVTMTGDTSTSTVYMELSSLRSEDTAVYYCARAEGSSWLGWFDPWGQGTLVTVSS VL: QSVLTQPPSASGTPGQRVTISCSGSSSNIGSNYVYWYQQLPGTAPKVLIYRNNQRPSGVPDRFSGSKSGTSASLAISGLRSEDEAEYYCAAWDDGLSGSGWLFGGGTKLT | binds | binds |
